Laboratory results reported in PMC5493697, “Crystal structure of Pelagibacterium halotolerans PE8: New insight into its substrate-binding pattern” (Scientific Reports, 2017).

B1: PE8 (Pelagibacterium halotolerans B2; S118A) (protein)
chain: MTEPVKLSGPMLPAVSGAAKSLVVLLHGYGSDGRDLIALGQFWRDSFPDTMFVAPNAPHVCGGNPFGYEWFPLDLERDRTLARLAGAETAHPVLDAFLADLWAQTGLGPADTILVGFAQGAMMALYTGLRLPEPLKAIIAFSGLIVAPEKLEAEIASKPPVLLIHGDLDDVVPVIGSETALPKLIDLGIDARLHISQGSGHTIAQDGLDTATAFLREIL
notes: 6xHis fusion from pET28b in E. coli Rosetta (DE3), Ni-NTA and SEC; monomer; catalytic triad Ser118, Asp169, His201
B2: PE8 (Pelagibacterium halotolerans B2; L73A) (protein)
chain: MTEPVKLSGPMLPAVSGAAKSLVVLLHGYGSDGRDLIALGQFWRDSFPDTMFVAPNAPHVCGGNPFGYEWFPADLERDRTLARLAGAETAHPVLDAFLADLWAQTGLGPADTILVGFSQGAMMALYTGLRLPEPLKAIIAFSGLIVAPEKLEAEIASKPPVLLIHGDLDDVVPVIGSETALPKLIDLGIDARLHISQGSGHTIAQDGLDTATAFLREIL
notes: as for B1
B3: PE8 (Pelagibacterium halotolerans B2; V172A) (protein)
chain: MTEPVKLSGPMLPAVSGAAKSLVVLLHGYGSDGRDLIALGQFWRDSFPDTMFVAPNAPHVCGGNPFGYEWFPLDLERDRTLARLAGAETAHPVLDAFLADLWAQTGLGPADTILVGFSQGAMMALYTGLRLPEPLKAIIAFSGLIVAPEKLEAEIASKPPVLLIHGDLDDVAPVIGSETALPKLIDLGIDARLHISQGSGHTIAQDGLDTATAFLREIL
notes: as for B1
B4: PE8 (Pelagibacterium halotolerans B2; V171A) (protein)
chain: MTEPVKLSGPMLPAVSGAAKSLVVLLHGYGSDGRDLIALGQFWRDSFPDTMFVAPNAPHVCGGNPFGYEWFPLDLERDRTLARLAGAETAHPVLDAFLADLWAQTGLGPADTILVGFSQGAMMALYTGLRLPEPLKAIIAFSGLIVAPEKLEAEIASKPPVLLIHGDLDDAVPVIGSETALPKLIDLGIDARLHISQGSGHTIAQDGLDTATAFLREIL
notes: as for B1
B5: PE8 (Pelagibacterium halotolerans B2; R79A) (protein)
chain: MTEPVKLSGPMLPAVSGAAKSLVVLLHGYGSDGRDLIALGQFWRDSFPDTMFVAPNAPHVCGGNPFGYEWFPLDLERDATLARLAGAETAHPVLDAFLADLWAQTGLGPADTILVGFSQGAMMALYTGLRLPEPLKAIIAFSGLIVAPEKLEAEIASKPPVLLIHGDLDDVVPVIGSETALPKLIDLGIDARLHISQGSGHTIAQDGLDTATAFLREIL
notes: as for B1
B6: PE8 (Pelagibacterium halotolerans B2; M122A) (protein)
chain: MTEPVKLSGPMLPAVSGAAKSLVVLLHGYGSDGRDLIALGQFWRDSFPDTMFVAPNAPHVCGGNPFGYEWFPLDLERDRTLARLAGAETAHPVLDAFLADLWAQTGLGPADTILVGFSQGAAMALYTGLRLPEPLKAIIAFSGLIVAPEKLEAEIASKPPVLLIHGDLDDVVPVIGSETALPKLIDLGIDARLHISQGSGHTIAQDGLDTATAFLREIL
notes: as for B1
B7: PE8 (Pelagibacterium halotolerans B2; R83A) (protein)
chain: MTEPVKLSGPMLPAVSGAAKSLVVLLHGYGSDGRDLIALGQFWRDSFPDTMFVAPNAPHVCGGNPFGYEWFPLDLERDRTLAALAGAETAHPVLDAFLADLWAQTGLGPADTILVGFSQGAMMALYTGLRLPEPLKAIIAFSGLIVAPEKLEAEIASKPPVLLIHGDLDDVVPVIGSETALPKLIDLGIDARLHISQGSGHTIAQDGLDTATAFLREIL
notes: as for B1
B8: PE8 (Pelagibacterium halotolerans B2) (protein)
chain: MTEPVKLSGPMLPAVSGAAKSLVVLLHGYGSDGRDLIALGQFWRDSFPDTMFVAPNAPHVCGGNPFGYEWFPLDLERDRTLARLAGAETAHPVLDAFLADLWAQTGLGPADTILVGFSQGAMMALYTGLRLPEPLKAIIAFSGLIVAPEKLEAEIASKPPVLLIHGDLDDVVPVIGSETALPKLIDLGIDARLHISQGSGHTIAQDGLDTATAFLREIL
notes: as for B1

These proteins were tested on CC(=O)Oc1ccc([N+](=O)[O-])cc1 (assay: purified protein). Details: 100 mM Tris-HCl pH 7.5, 30 °C, 0.05-4 mM substrate in acetonitrile.
Assay type: biochemical, Pelagibacterium halotolerans

B1 and B2 are within error of each other in Km: 540 ± 46 µM for the first, 530 ± 26 µM for the second.

Going from B3 to B4, the Km rises from 500 ± 35 µM to 890 ± 70 µM (1.8-fold).

Compared with B5, B6 is 8-fold lower in Km: 600 ± 62 µM for the first, 75 ± 6.9 µM for the second.

B7 and B8 are within error of each other in Km: 600 ± 23 µM for the first, 660 ± 49 µM for the second.

Going from B1 to B2, the Vmax rises from 12 µM/min/mg to 55 µM/min/mg.

First: B3
Second: B4
The Vmax of the first is higher: 82 µM/min/mg for the first, 36 µM/min/mg for the second.

Going from B5 to B6, the Vmax falls from 132 µM/min/mg to 96 µM/min/mg.

Going from B7 to B8, the Vmax falls from 97 µM/min/mg to 71 µM/min/mg.

Compared with B1, B2 is 4.5-fold higher in kcat: 5.1 ± 0.14 s⁻¹ for the first, 23 ± 0.27 s⁻¹ for the second.

Going from B3 to B4, the kcat falls from 35 ± 0.63 s⁻¹ to 19 ± 0.42 s⁻¹ (1.8-fold).

B5 and B6 are within 1.5-fold of each other in kcat: 55 ± 1.7 s⁻¹ for the first, 40 ± 0.68 s⁻¹ for the second.

B7 and B8 are within 1.5-fold of each other in kcat: 41 ± 0.42 s⁻¹ for the first, 30 ± 0.68 s⁻¹ for the second.
